Drawing on US20240150441A1, this text covers neutralization of BA.4/5 pseudovirus, luciferase reporter assay, IC50 and neutralization of authentic B.1.1.529 (Omicron) virus, foci-forming assay, IC50 for one substance.

Test [1] concerns the target spike (S) protein of the BA.4/5 SARS-CoV-2 pseudovirus (SARS-CoV-2, Omicron subvariant BA.4/5) (UniProt P0DTC2). Kind of test: cell-based or functional assay.
In test [2] the target is spike (S) protein of the authentic parental Omicron variant (B.1.1.529) of SARS-CoV-2 (SARS-CoV-2, B.1.1.529 (Omicron) variant) (UniProt P0DTC2). Briefly: cell-based or functional assay.

Take “plant-made cilgavimab (pCilgavimab) (antibody)”: the neutralization of BA.4/5 pseudovirus, luciferase reporter assay, IC50 in test [1] is 0.102 µg/mL. The neutralization of authentic B.1.1.529 (Omicron) virus, foci-forming assay, IC50 in test [2] was found to be 2.23 µg/mL.
